# B1: KvLm-PM, pore module of KvLm (S4-S5 linker-S5-P-S6-C-terminus) (domain or fragment, Listeria monocytogenes, UniProt Q8Y5K1 98-247, looked up)
# chain: RYIVPIYSFFRSNGLNRFLMIFVLLVIIIPVPMVFIEPEINNYPDALWWAIVTATTVGYGDIVPVTPIGRILASIMMLFGIAFIGMITSTITNFFRAKKPTNSSTQRANKITQLISETPDLTKEEIAVVEQFLTLRKKELADENTKSDSE
# Biological target: the molecule itself
# Experiment: SEC
protein,measurement,value
B1,stoichiometry N,4
